{
  "source": "patent US20250027068",
  "proteins": {"B1": {"name": "PRT-175 (protein)", "chain": "MANQEIRYSEVTPYHITSVWTKGVTPPTDFTQGEDVFHAPYKANQGWYDITKTFNGKDDLLCGAATAGNMLHWWFDQNKTQIERYLKKHPEKQKINFNGEQMFDVKEAIDTKNSQTNSELFNYFKEKAFPYLSTKHLGVFPDHVIDMFINGYRLSLTNHGPTPVKRQSKDPRGGIFDAVFTRGDQSKLLTSRHDFKEKTLNEISQLIKQELTEGKALGLSHTYANVRINHVINLWGADFDAEGNLEAIYVTDSDSNASIGMKKYFVGVNSAGKVAISAKEIKEDNIGAQVLGLFTLSTGKDSWEKTN"}, "B2": {"name": "PRT-176 (protein)", "chain": "MANQEIRYSEVTPYHITSVWTKGVTPPTDFIKGEDVFHAPYKAHQGWYDITKTFNGGDDLLCGAATAGNMLHWWFDQNKTQIEAYLKKHPEKQKINFNGEQMFDVKEAIDTKNSQTNSELFNYFKEKAFPYLSTKHLGVFPDHVIDMFINGYRLSLTNHGPTPVKRQTKDPRGGIFDAVFGRGDQTKLLTSRHDFKEKTLNDISQLIKQELQSGKALGLSHTYANVRINHVINLWGADFDAEGNLEAIYVTDSDSNASIGMKKYFVGKNASGKVAISAKEIEDENIGAQVLGLFTLSTGKKSWEKTN"}, "B3": {"name": "PRT-177 (protein)", "chain": "B2 chain with T17K, S18T, K22D, T25K, T53A, N55D, K79S, E91D, Q185S"}, "B4": {"name": "PRT-178 (protein)", "chain": "MANQEIRYSEVTPYHVTSVWTKGVTPPANFTQGEDVFHAPYVANQGWYDITKTFNGKDDLLCGAATAGNMLHWWFDQNKDQIKRYLEEHPEKQKIIFNNQELFDLKAAIDTKNHQLDSKLFEYFKEKAFPYLSTKHLGVFPDHVIDMFINGYRLSLTNHGPTPVKEGSKDPRGGIFDAVFTRGDQSKLLTSRHDFKEKNLKEISDLIKKELTEGKALGLSHTYANVRINHVINLWGADFDSNGNLKAIYVTDSDSNASIGMKKYFVGVNSAGKVAISAKEIKEDNIGAQVLGLFTLSTGQDSWNQTN"}, "B5": {"name": "PRT-179 (protein)", "chain": "B4 chain with I96N, N99G, Q100E, E101Q, L102M, L105V, A107E, T134A, K135R, H136Q"}, "B6": {"name": "PRT-180 (protein)", "chain": "MANQEIRYSEVTPYHVTSVWTKGVTPPANFTQGEDVFHAPYVANQGWYDITKTFNGKDDLLCGAATAGNMLHWWFDQNKDQIKRYLEEHPEKQKINFNGEQMFDVKEAIDTKNHQLDSKLFEYFKEKAFPYLSTKHLGVFPDHVIDMFINGYRLSLTNTQSTDVNEGSKDPRGGIFDAVFTRGDQSKLLTSRHDFKEKNLKEISDLIKKELTEGKALGLSHTYANVRINHVINLWGADFDSNGNLKAIYVTDSDSNASIGMKKYFVGVNSAGKVAISAKEIKEDNIGAQVLGLFTLSTGQDSWNQTN"}, "B7": {"name": "PRT-181 (protein)", "chain": "B6 chain with T159H, Q160G, S161P, D163P, N165K, F195L, E197N"}, "B8": {"name": "PRT-182 (protein)", "chain": "B6 chain with T159H, Q160G, S161P, D163P, N165K, E280K"}, "B9": {"name": "PRT-183 (protein)", "chain": "MRNATEAYAKEVPHQVTSVWTKGVTPPANFTQGEDVFHAPYVANQGWYDITKTFNGKDDLLCGAATAGNMLHWWFDQNKDQIKRYLEEHPEKQKINFNGEQMFDVKEAIDTKNHQLDSKLFEYFKEKAFPYLSTKHLGVFPDHVIDMFINGYRLSLTNHGPTPVKEGSKDPRGGIFDAVFTRGDQSKLLTSRHDFKEKNLKEISDLIKKELTEGKALGLSHTYANVRINHVINLWGADFDSNGNLKAIYVTDSDSNASIGMKKYFVGVNSAGKVAISAKEIKEDNIGAQVLGLFTLSTGQDSWNQTN"}, "B10": {"name": "PRT-184 (protein)", "chain": "B6 chain with T159H, Q160G, S161P, D163P, N165K, N304Q, Q305K, T306L, N307S"}, "B11": {"name": "PRT-185 (protein)", "chain": "MANQEIRYSEVTPYHVTSVWTKGVTPPANFRQGEDVFAAPYVANQGWYDITKTFNGKDDLLCGAATAGNMLHWWFDQNKDQIKRYLEEHPEKQKINFNGEQMFDVKELNTYESDHGYRDKSKLFEYFKEKAFPYLSTKHLGVFPDHVIDMFINGYRLSLTNHGPTPVKEGSKDPRGGIFDAVFTRGDQSKLLTSRHDFKEKNLKEISDLIKKELTEGKALGLSHTYANVRINHVINLWGADFDSNGNLKAIYVTDSDDKKLTIGDERIGMKKYFVGVNSAGKVAISAKEIKEDNIGAQVLGLFTLSTGQDSWNQTN"}, "B12": {"name": "PRT-186 (protein)", "chain": "MANQEIRYSEVTPYHVTSVWTKGVTPPANFRKIVDGNIAYYHAPYVANQGWYDITKTFNGKDDLLCGAATAGNMLHWWFDQNKDQIKRYLEEHPEKQKINFNGEQMFDVKEAIDTKNHQLDSKLFEYFKEKAFPYLSTKHLGVFPDHVIDMFINGYRLSLTNHGPTPVKEGSKDPRGGIFDAVFTRGDQSKLLTSRHDFKEKNLKEISDLIKKELTEGKALGLSHTYANVRINHVINLWGADFDSNGNLKAIYVTDSDSNASIGMKKYFVGVNSAGKVAISAKEIKEDNIGAQVLGLFTLSTGQDSWNQTN"}, "B13": {"name": "PRT-187 (protein)", "chain": "MANQEIRYSEVTPYHVTSVWTKGVTPPADFTYGEDVFHAPYVANQGWYDITKTFNGKDDLLCGAATAGNMLHWWFDQNKEQIEKYLKKHPEKQKIMFGDQELLDVRKVINTKGSQTNSELFNYFRDKAFPGLSARRLGVMPDLVLDMFINGYYLNVYKTQTTDVNRTYQEKDKRGGIFDAVFTRGDQSKLLTSRHDFKEKNLKEISDLIKQELTEGKALGLSHTYANVRINHVINLWGADFDSNGNLKAIYVTDSDSNASIGMKKYFVGVNSAGKVAISAKEIKEDNIGAQVLGLFTLSTGQDIWNQTN"}},
  "note": "Substitutions are numbered along the chain they refer to.",
  "data": [
    {"biological_target": "pooled human IgG (human IgG1,2,3 and 4)", "units": {"Enzyme Activity Endpoint Assay: Fab'2": "ng/µL", "Enzyme Activity Endpoint Assay: Fc": "ng/µL", "Enzyme Activity Endpoint Assay: IgG": "ng/µL", "Enzyme Activity Endpoint Assay: scIgG": "ng/µL"}, "values": [
      {"protein": "B1", "Enzyme Activity Endpoint Assay: Fab'2": 497, "Enzyme Activity Endpoint Assay: Fc": 147, "Enzyme Activity Endpoint Assay: IgG": 0, "Enzyme Activity Endpoint Assay: scIgG": 0},
      {"protein": "B2", "Enzyme Activity Endpoint Assay: Fab'2": 310, "Enzyme Activity Endpoint Assay: Fc": 140, "Enzyme Activity Endpoint Assay: IgG": 0, "Enzyme Activity Endpoint Assay: scIgG": 86},
      {"protein": "B3", "Enzyme Activity Endpoint Assay: Fab'2": 67, "Enzyme Activity Endpoint Assay: Fc": 105, "Enzyme Activity Endpoint Assay: IgG": 131, "Enzyme Activity Endpoint Assay: scIgG": 426},
      {"protein": "B4", "Enzyme Activity Endpoint Assay: Fab'2": 695, "Enzyme Activity Endpoint Assay: Fc": 196, "Enzyme Activity Endpoint Assay: IgG": 0, "Enzyme Activity Endpoint Assay: scIgG": 0},
      {"protein": "B5", "Enzyme Activity Endpoint Assay: Fab'2": 697, "Enzyme Activity Endpoint Assay: Fc": 187, "Enzyme Activity Endpoint Assay: IgG": 0, "Enzyme Activity Endpoint Assay: scIgG": 0},
      {"protein": "B6", "Enzyme Activity Endpoint Assay: Fab'2": 690, "Enzyme Activity Endpoint Assay: Fc": 197, "Enzyme Activity Endpoint Assay: IgG": 0, "Enzyme Activity Endpoint Assay: scIgG": 0},
      {"protein": "B7", "Enzyme Activity Endpoint Assay: Fab'2": 890, "Enzyme Activity Endpoint Assay: Fc": 217, "Enzyme Activity Endpoint Assay: IgG": 24, "Enzyme Activity Endpoint Assay: scIgG": 0},
      {"protein": "B8", "Enzyme Activity Endpoint Assay: Fab'2": 563, "Enzyme Activity Endpoint Assay: Fc": 167, "Enzyme Activity Endpoint Assay: IgG": 0, "Enzyme Activity Endpoint Assay: scIgG": 27},
      {"protein": "B9", "Enzyme Activity Endpoint Assay: Fab'2": 630, "Enzyme Activity Endpoint Assay: Fc": 175, "Enzyme Activity Endpoint Assay: IgG": 0, "Enzyme Activity Endpoint Assay: scIgG": 0},
      {"protein": "B10", "Enzyme Activity Endpoint Assay: Fab'2": 629, "Enzyme Activity Endpoint Assay: Fc": 165, "Enzyme Activity Endpoint Assay: IgG": 0, "Enzyme Activity Endpoint Assay: scIgG": 0},
      {"protein": "B11", "Enzyme Activity Endpoint Assay: Fab'2": 0, "Enzyme Activity Endpoint Assay: Fc": 45, "Enzyme Activity Endpoint Assay: IgG": 365, "Enzyme Activity Endpoint Assay: scIgG": 152},
      {"protein": "B12", "Enzyme Activity Endpoint Assay: Fab'2": 646, "Enzyme Activity Endpoint Assay: Fc": 218, "Enzyme Activity Endpoint Assay: IgG": 9, "Enzyme Activity Endpoint Assay: scIgG": 0},
      {"protein": "B13", "Enzyme Activity Endpoint Assay: Fab'2": 265, "Enzyme Activity Endpoint Assay: Fc": 307, "Enzyme Activity Endpoint Assay: IgG": 115, "Enzyme Activity Endpoint Assay: scIgG": 103}
    ]}
  ]
}
